In the assay the target is IVIg (Octagam). The assay is described as follows: cell-based or functional assay.

From US20200179497A1 come the findings set out here.

Numbering of substitutions follows the chain as printed.

B1: pCART229 (enzyme)
chain: MDDYQRNATEAYAKEVPHQITSVWTKGVTPPEQFTQGEDVIHAPYLAHQGWYDITKAFDGKDNLLCGAATAGNMLHWWFDQNKTEIEAYLSKHPEKQKIIFRNQELFDLKAAIDTKDSQTNSQLFNYFRDKAFPNLSARQLGVMPDLVLDMFINGYYLNVFKTQSTDVNRPYQDKDKRGGIFDAVFTRGNQTTLLTARHDLKNKGLNDISTIIKQELTEGRALALSHTYANVSISHVINLWGADFNAEGNLEAIYVTDSDANASIGMKKYFVGINAHGHVAISAKKIEGENIGAQVLGLFTLSSGKDIWQKLSGGGHHHHHH
As to B1, the Conc. of enzyme, 1st IgG heavy chain, IgG to scIgG (gel) is 1900 ng/mL and the Conc. of enzyme, 2nd IgG heavy chain, scIgG to F(ab')2 (gel) was determined as 7500 ng/mL.

B2: pCART203 (enzyme)
chain: B1 chain with R102N, N190D
In turn, B2 returned an enzyme concentration giving an intense scIgG band on SDS-PAGE of 0.94 ng/mL and an enzyme concentration giving mainly scIgG on SDS-PAGE of 0.9 ng/mL.

B3: pCART210 (enzyme)
chain: B1 chain with H48N, A111E, D114R, N126E, N135Y, N169K, Q215E, E219K, A276K, S313N
As to B3, the enzyme concentration giving mainly scIgG on SDS-PAGE amounted to 0.9 ng/mL.

B4: pCART208 (enzyme)
chain: B1 chain with F101I, N190D
Take B4: the enzyme concentration giving a dominating F(ab')2 band on SDS-PAGE came to 1.9 ng/mL and the enzyme concentration giving mainly scIgG on SDS-PAGE amounted to 0.5 ng/mL.

B5: pCART204 (enzyme)
chain: MDDYQRNATEAYAKEVPHQITSVWTKGVTPPEQFRYNNEDVIHAPYLAHQGWYDITKAFDGKDNLLCGAATAGNMLHWWFDQNKTEIEAYLSKHPEKQKIIFNNQELFDLKAAIDTKDSQTNSQLFNYFRDKAFPNLSARQLGVMPDLVLDMFINGYYLNVFKTQSTDVNRPYQDKDKRGGIFDAVFTRGDQTTLLTARHDLKNKGLNDISTIIKQELTEGRALALSHTYANVSISHVINLWGADFNAEGNLEAIYVTDSDANASIGMKKYFVGINAHGHVAISAKKIEGENIGAQVLGLFTLSSGKDIWQKLSGGGHHHHHH
In the case of B5, the enzyme concentration giving an intense scIgG band on SDS-PAGE is 0.94 ng/mL.

B6: pCART202 (enzyme)
chain: MDDYQRNATEAYAKEVPHQITSVWTKGVTPLTPEQFTQGEDVIHAPYLAHQGWYDITKAFDGKDNLLCGAATAGNMLHWWFDQNKTEIEAYLSKHPEKQKIIFNNQELFDLKAAIDTKDSQTNSQLFNYFRDKAFPNLSARQLGVMPDLVLDMFINGYYLNVFKTQSTDVNRPYQDKDKRGGIFDAVFTRGDQTTLLTARHDLKNKGLNDISTIIKQELTEGRALALSHTYANVSISHVINLWGADFNAEGNLEAIYVTDSDANASIGMKKYFVGINAHGHVAISAKKIEGENIGAQVLGLFTLSSGKDIWQKLSGGGHHHHHH
The molecule B6 gave an enzyme concentration giving an intense scIgG band on SDS-PAGE of 0.94 ng/mL.
